# From PMC3036151, “Cloning and endogenous expression of a Eucalyptus grandis UDP-glucose dehydrogenase cDNA” (Genetics and Molecular Biology, 2010)
# B1: UDP-glucose dehydrogenase (UGDH), Poly-His-Tagged eucalyptus UDP-GDH, UDP-GlucDH (Eucalyptus grandis) (protein)
# chain: MVKICCIGAGYVGGPTMAVIALKCPSVEVAVVDISVSRIQAWNSEQLPIYEPGLDAVVKQCRGKNLFFSTDVEKHVFEADIVFVSVNTPTKTRGLGAGKAADLTYWESAARMIADVSKSDKIVVEKSTVPVKTAEAIEKILTHNSKGIKFQILSNPEFLAEGTAIQDLFAPDRVLIGGRETPEGQKAIQTLKDVYAHWVPEDRILTTNLWSAELSKLAANAFLAQRISSVNAMSSLCEATGADVAQVSYAVGKDSRIGPKFLNASVGFGGSCFQKDILNLVYICECNGLPEVAEYWKQVIKINDYQKARFVNRVVSSMFNTVSNKKIAILGFAFKKDTGDTRETPAIDVCKGLLGDKARLSIYDPQVTEEQIQRDLTMNKFDWDHPVHLQPMSPTTVKQVSVVWDAYDAVKDAHGLCILTEWDEFKTLDYQRIYDNMQKPAYIFDGRNVVNVNKLREIGFIVYSIGKPLDPWLKDMPAVA
# notes: full-length ORF (1443 bp, 480 residues, about 53 kDa) from cambial-region cDNA, N-terminal 6xHis tag (pDEST17) kept, E. coli BL21-AI; cDNA ends set by degenerate primers
# How the values were obtained:
# purified protein [1] = substrate: NC(=O)c1ccc[n+]([C@@H]2O[C@H](COP(=O)(O)OP(=O)(O)OC[C@H]3O[C@@H](n4cnc5c(N)ncnc54)[C@H](O)[C@@H]3O)[C@@H](O)[C@H]2O)c1; test: purified protein; assay type: biochemical, Eucalyptus grandis; details: UDP-glucose saturating (1 mM), 20 mM Tris-HCl pH 8.0, 2 mM MgCl2, 30 °C, panel letters in text and Figure 3 caption are swapped, varied: cofactor
# purified protein [2] = substrate: O=c1ccn([C@@H]2O[C@H](CO[P@@](=O)(O)O[P@@](=O)(O)O[C@H]3O[C@H](CO)[C@@H](O)[C@H](O)[C@H]3O)[C@@H](O)[C@H]2O)c(=O)[nH]1; test: purified protein; assay type: biochemical, Eucalyptus grandis; details: NAD+ saturating (1 mM), 20 mM Tris-HCl pH 8.0, 2 mM MgCl2, 30 °C, panel letters in text and Figure 3 caption are swapped
protein,measurement,setting,value
B1,Km,purified protein [1],67.3 ± 17.9 µM
same,Km,purified protein [2],60.7 ± 8.5 µM
